Experiments:
[1] = target: Purified human IgG (injectable IVIG) (human); assay: dynamic binding capacity at 10% breakthrough; ligand on agarose in 1 ml column; human IgG 2.5 mg/ml; 4 min residence time
[2] = target: Purified human IgG (injectable IVIG) (human); assay: dynamic binding capacity at 10% breakthrough after 24 h in 0.5 M NaOH; ligand on agarose column; human IgG 2.5 mg/ml
[3] = target: Purified human IgG (injectable IVIG) (human); assay: dynamic binding capacity at 10% breakthrough after 35 h in 0.5 M NaOH; ligand on agarose column; human IgG 2.5 mg/ml
[4] = target: Purified human IgG (injectable IVIG) (human); assay: DBC after 0.5 M NaOH soaking relative to DBC before soaking; agarose column; human IgG

DBC before NaOH soaking [1] [mg/mL]	DBC after 24 h soaking [2] [mg/mL]	DBC after 35 h soaking [3] [mg/mL]	Percentage of remaining DBC [4] [%]	Substance
58	47	39	67.2	Z domain with N52L mutation Ig-binding affinity ligand (designed binder)
63	52	41	65.1	Z domain with N52V mutation Ig-binding affinity ligand (designed binder)
62	52	44	70.9	Z domain with S41A mutation Ig-binding affinity ligand (designed binder)
59	50	42	71.2	Z domain with S41A/N52L mutations Ig-binding affinity ligand (designed binder)
65	59	53	81.5	Z domain with S41A/N52V mutations Ig-binding affinity ligand (designed binder)
65	53	43	66.1	Z domain with S41V mutation Ig-binding affinity ligand (designed binder)
64	56	49	76.5	Z domain with S41V/N52V mutations Ig-binding affinity ligand (designed binder)

— patent US20240174720A1
